Data as given in US20220033501A1 (SHANGHAI PHARMAEXPLORER, published 2022).

T1: human TIM-3 on CHOK1 stable cell line (CHOK1-hTIM-3) (human, UniProt Q8TDQ0 22-301)
T1 sequence: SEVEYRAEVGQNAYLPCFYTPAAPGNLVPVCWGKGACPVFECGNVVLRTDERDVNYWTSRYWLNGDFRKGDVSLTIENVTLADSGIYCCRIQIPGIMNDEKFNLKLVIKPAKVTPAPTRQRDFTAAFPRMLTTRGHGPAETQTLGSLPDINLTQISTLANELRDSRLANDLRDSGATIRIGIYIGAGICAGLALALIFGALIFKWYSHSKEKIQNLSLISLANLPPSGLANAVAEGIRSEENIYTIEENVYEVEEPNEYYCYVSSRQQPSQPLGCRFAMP

T2: human TIM-3 extracellular domain protein with hFc tag (hTIM-3-hFc) (human, UniProt Q8TDQ0 22-200)
T2 construct: not shown: human IgG Fc fragment (hFc) of the pCpC vector
T2 sequence: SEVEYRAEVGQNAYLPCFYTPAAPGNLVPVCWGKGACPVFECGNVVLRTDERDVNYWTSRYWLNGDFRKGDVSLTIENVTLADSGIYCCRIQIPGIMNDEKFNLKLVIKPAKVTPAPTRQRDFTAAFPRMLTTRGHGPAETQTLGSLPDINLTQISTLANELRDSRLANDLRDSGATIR

T3: monkey TIM-3 extracellular domain protein with hFc tag (cTIM-3-hFc) (monkey)
T3 construct: not shown: human IgG Fc fragment (hFc) of the pCpC vector
T3 chain: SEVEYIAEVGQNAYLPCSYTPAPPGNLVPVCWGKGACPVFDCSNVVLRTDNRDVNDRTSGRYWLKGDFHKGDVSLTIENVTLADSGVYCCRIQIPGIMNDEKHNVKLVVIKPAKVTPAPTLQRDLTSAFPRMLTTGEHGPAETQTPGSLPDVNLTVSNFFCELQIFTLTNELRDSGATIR


How the values were obtained:
[1] = biological target: T1, human TIM-3 on CHOK1 stable cell line …; assay: FACS, CHOK1-hTIM-3 cells, 8 nM antibody
[2] = biological target: T1, human TIM-3 on CHOK1 stable cell line …; assay: FACS, CHOK1-hTIM-3 cells, 40 nM antibody
[3] = biological target: T2, human TIM-3 extracellular domain …; assay: ELISA, coated human TIM-3 ECD protein, 0.0667 nM antibody
[4] = biological target: T3, monkey TIM-3 extracellular domain …; assay: ELISA, coated monkey TIM-3 ECD protein, 0.0667 nM antibody

| Mean fluorescence intensity [1] | Mean fluorescence intensity [2] | OD450 [3] | OD450 [4] | Binder |
| --- | --- | --- | --- | --- |
| 268 | 257 | 1.57 | 1.56 | 18D2H2 fully human TIM-3 antibody (human IgG4, kappa) (antibody, V domains shown) VH: EVQLVESGGDLVQPGGSLRLSCAASGFTFSTYWMTWVRQAPGRGLEWVANIKQDGSAKYYVDSVKGRFTLSRDDAKNSLYLQMNSLRAEDTAVYYCARGSNWFDYWGQGTLVTVSS VL: ETVMTQSPATLSVSPGERATLSCRANQNVYSNLAWYQQKPGQAPRLLIYDASTRATGFPARFSGSGSGTEFTLTISSLQSEDFAVYYCQQYNNWPLTFGGGTKVEIK |
| 234 | 264 | 1.33 | 1.37 | 39E5H1 fully human TIM-3 antibody (human IgG4, kappa) (antibody, V domains shown) VH: EVQLVESGGGLVQPGGSLRLSCAASGFTFSSYWMSWVRQAPGKGLEWVANIKRGGSERYYVDSVKGRFTISGDNAKNSVYLQMNSLRAEDTAVYYCARGSNWFDPWGQGTLVTVSS VL: ETVMTQSPAILSVSPGERATLSCRASQSVYSNLAWYQQKLGQAPRLLIYDASTRATGIPARFSGSGSGTEFTLTISSLQSEDFAVYYCQQYNNWPITFGQGTRLEIK |
| 219 | 221 | 1.58 | 1.71 | 34B6D8 fully human TIM-3 antibody (human IgG4, kappa) (antibody, V domains shown) VH: EVQLVESGGGLVQPGGSLRLSCAASGFTFSTYWMTWVRQAPGKRLEWVANIKQGGGDKYYVDSVKGRFTISTDNAKNSLYLQMNSLRAEDTAVYYCARGSNWFDPWGQGTLVTVSS VL: EIVMTQSPATLSMSPGERATLSCRASQSVYDNLAWYQQKPGQAPRLLIYGASTRATGIPARFSGSGSGTEFTLTISSLQSEDFALYYCQQYTHWPITFGQGTRLEIK |
| 308 | 313 | 1.69 | 0.68 | 7A4F10 fully human TIM-3 antibody (human IgG4, kappa) (antibody, V domains shown) VH: EVQLLESGGGLVQPGGSLRLSCAASGFTFRTHLISWVRQAPGKGLEWVAAITGSGGSTYYADSVKGRFIISRDNSKNTLFLQMNSLRAEDTAVYYCAKDGGSGSYDDFWGQGTLVTVSS VL: ETVLTQSPVTLSLSPGERATLSCRASQSVGSYLAWYQQKPGQAPRLLIYDASNRATGIPARFSGSGSGTDFTLTISSLEPEDFAVYYCQQRSNWPPTFGQGTKVEIK |
